Measured values as given in patent US20220119513A1 (ZOETIS SERVICES, published 2022).

B1: Can-SL501-VH3 D108E / Can-SL501-VL2 (antibody, V domains shown)
VH: EVQLVESGGDLVKPGGSLRLSCVASGFTFSSYGMHWVRQAPGKELEWVAVISYDGSIKYYADAVKGRFTISRDNAKNTLYLQMNSLRAEDTAVYYCARTGEYSGYDTEPQYSWGQGTTVTVSS
VL: EIVMTQSPGSLAGSAGESVSINCRASQGIGDDLGWYQQKPGERPKLLIYGTSTLQSGVPARFSSSGSGTDFTLTINNLQAEDVGDYYCLQDSNYPLTFGAGTK
B2: Can-SL501-VH3 D108P / Can-SL501-VL2 (antibody, V domains shown)
VH: EVQLVESGGDLVKPGGSLRLSCVASGFTFSSYGMHWVRQAPGKELEWVAVISYDGSIKYYADAVKGRFTISRDNAKNTLYLQMNSLRAEDTAVYYCARTGEYSGYDTPPQYSWGQGTTVTVSS
VL: EIVMTQSPGSLAGSAGESVSINCRASQGIGDDLGWYQQKPGERPKLLIYGTSTLQSGVPARFSSSGSGTDFTLTINNLQAEDVGDYYCLQDSNYPLTFGAGTK
B3: Can-SL501-VH3 D108Q / Can-SL501-VL2 (antibody, V domains shown)
VH: EVQLVESGGDLVKPGGSLRLSCVASGFTFSSYGMHWVRQAPGKELEWVAVISYDGSIKYYADAVKGRFTISRDNAKNTLYLQMNSLRAEDTAVYYCARTGEYSGYDTQPQYSWGQGTTVTVSS
VL: EIVMTQSPGSLAGSAGESVSINCRASQGIGDDLGWYQQKPGERPKLLIYGTSTLQSGVPARFSSSGSGTDFTLTINNLQAEDVGDYYCLQDSNYPLTFGAGTK
B4: Can-SL501-VH3 D108N / Can-SL501-VL2 (antibody, V domains shown)
VH: EVQLVESGGDLVKPGGSLRLSCVASGFTFSSYGMHWVRQAPGKELEWVAVISYDGSIKYYADAVKGRFTISRDNAKNTLYLQMNSLRAEDTAVYYCARTGEYSGYDTNPQYSWGQGTTVTVSS
VL: EIVMTQSPGSLAGSAGESVSINCRASQGIGDDLGWYQQKPGERPKLLIYGTSTLQSGVPARFSSSGSGTDFTLTINNLQAEDVGDYYCLQDSNYPLTFGAGTK
B5: Can-SL501-VH3 D108S / Can-SL501-VL2 (antibody, V domains shown)
VH: EVQLVESGGDLVKPGGSLRLSCVASGFTFSSYGMHWVRQAPGKELEWVAVISYDGSIKYYADAVKGRFTISRDNAKNTLYLQMNSLRAEDTAVYYCARTGEYSGYDTSPQYSWGQGTTVTVSS
VL: EIVMTQSPGSLAGSAGESVSINCRASQGIGDDLGWYQQKPGERPKLLIYGTSTLQSGVPARFSSSGSGTDFTLTINNLQAEDVGDYYCLQDSNYPLTFGAGTK
B6: Can-SL501-VH3 D108T / Can-SL501-VL2 (antibody, V domains shown)
VH: EVQLVESGGDLVKPGGSLRLSCVASGFTFSSYGMHWVRQAPGKELEWVAVISYDGSIKYYADAVKGRFTISRDNAKNTLYLQMNSLRAEDTAVYYCARTGEYSGYDTTPQYSWGQGTTVTVSS
VL: EIVMTQSPGSLAGSAGESVSINCRASQGIGDDLGWYQQKPGERPKLLIYGTSTLQSGVPARFSSSGSGTDFTLTINNLQAEDVGDYYCLQDSNYPLTFGAGTK
B7: Can-SL501-VH3 D108H / Can-SL501-VL2 (antibody, V domains shown)
VH: EVQLVESGGDLVKPGGSLRLSCVASGFTFSSYGMHWVRQAPGKELEWVAVISYDGSIKYYADAVKGRFTISRDNAKNTLYLQMNSLRAEDTAVYYCARTGEYSGYDTHPQYSWGQGTTVTVSS
VL: EIVMTQSPGSLAGSAGESVSINCRASQGIGDDLGWYQQKPGERPKLLIYGTSTLQSGVPARFSSSGSGTDFTLTINNLQAEDVGDYYCLQDSNYPLTFGAGTK
B8: Can-SL501-VH3 P109S / Can-SL501-VL2 (antibody, V domains shown)
VH: EVQLVESGGDLVKPGGSLRLSCVASGFTFSSYGMHWVRQAPGKELEWVAVISYDGSIKYYADAVKGRFTISRDNAKNTLYLQMNSLRAEDTAVYYCARTGEYSGYDTDSQYSWGQGTTVTVSS
VL: EIVMTQSPGSLAGSAGESVSINCRASQGIGDDLGWYQQKPGERPKLLIYGTSTLQSGVPARFSSSGSGTDFTLTINNLQAEDVGDYYCLQDSNYPLTFGAGTK
B9: Can-SL501-VH3 P109H / Can-SL501-VL2 (antibody, V domains shown)
VH: EVQLVESGGDLVKPGGSLRLSCVASGFTFSSYGMHWVRQAPGKELEWVAVISYDGSIKYYADAVKGRFTISRDNAKNTLYLQMNSLRAEDTAVYYCARTGEYSGYDTDHQYSWGQGTTVTVSS
VL: EIVMTQSPGSLAGSAGESVSINCRASQGIGDDLGWYQQKPGERPKLLIYGTSTLQSGVPARFSSSGSGTDFTLTINNLQAEDVGDYYCLQDSNYPLTFGAGTK
B10: Can-SL501-VH3 P109Y / Can-SL501-VL2 (antibody, V domains shown)
VH: EVQLVESGGDLVKPGGSLRLSCVASGFTFSSYGMHWVRQAPGKELEWVAVISYDGSIKYYADAVKGRFTISRDNAKNTLYLQMNSLRAEDTAVYYCARTGEYSGYDTDYQYSWGQGTTVTVSS
VL: EIVMTQSPGSLAGSAGESVSINCRASQGIGDDLGWYQQKPGERPKLLIYGTSTLQSGVPARFSSSGSGTDFTLTINNLQAEDVGDYYCLQDSNYPLTFGAGTK
B11: Can-SL501-VH3 P109W / Can-SL501-VL2 (antibody, V domains shown)
VH: EVQLVESGGDLVKPGGSLRLSCVASGFTFSSYGMHWVRQAPGKELEWVAVISYDGSIKYYADAVKGRFTISRDNAKNTLYLQMNSLRAEDTAVYYCARTGEYSGYDTDWQYSWGQGTTVTVSS
VL: EIVMTQSPGSLAGSAGESVSINCRASQGIGDDLGWYQQKPGERPKLLIYGTSTLQSGVPARFSSSGSGTDFTLTINNLQAEDVGDYYCLQDSNYPLTFGAGTK
B12: Can-SL501-VH3 P109F / Can-SL501-VL2 (antibody, V domains shown)
VH: EVQLVESGGDLVKPGGSLRLSCVASGFTFSSYGMHWVRQAPGKELEWVAVISYDGSIKYYADAVKGRFTISRDNAKNTLYLQMNSLRAEDTAVYYCARTGEYSGYDTDFQYSWGQGTTVTVSS
VL: EIVMTQSPGSLAGSAGESVSINCRASQGIGDDLGWYQQKPGERPKLLIYGTSTLQSGVPARFSSSGSGTDFTLTINNLQAEDVGDYYCLQDSNYPLTFGAGTK
B13: Can-SL501-VH3 P109G / Can-SL501-VL2 (antibody, V domains shown)
VH: EVQLVESGGDLVKPGGSLRLSCVASGFTFSSYGMHWVRQAPGKELEWVAVISYDGSIKYYADAVKGRFTISRDNAKNTLYLQMNSLRAEDTAVYYCARTGEYSGYDTDGQYSWGQGTTVTVSS
VL: EIVMTQSPGSLAGSAGESVSINCRASQGIGDDLGWYQQKPGERPKLLIYGTSTLQSGVPARFSSSGSGTDFTLTINNLQAEDVGDYYCLQDSNYPLTFGAGTK
B14: Can-SL501-VH3 Q110S / Can-SL501-VL2 (antibody, V domains shown)
VH: EVQLVESGGDLVKPGGSLRLSCVASGFTFSSYGMHWVRQAPGKELEWVAVISYDGSIKYYADAVKGRFTISRDNAKNTLYLQMNSLRAEDTAVYYCARTGEYSGYDTDPSYSWGQGTTVTVSS
VL: EIVMTQSPGSLAGSAGESVSINCRASQGIGDDLGWYQQKPGERPKLLIYGTSTLQSGVPARFSSSGSGTDFTLTINNLQAEDVGDYYCLQDSNYPLTFGAGTK
B15: Can-SL501-VH3 Q110R / Can-SL501-VL2 (antibody, V domains shown)
VH: EVQLVESGGDLVKPGGSLRLSCVASGFTFSSYGMHWVRQAPGKELEWVAVISYDGSIKYYADAVKGRFTISRDNAKNTLYLQMNSLRAEDTAVYYCARTGEYSGYDTDPRYSWGQGTTVTVSS
VL: EIVMTQSPGSLAGSAGESVSINCRASQGIGDDLGWYQQKPGERPKLLIYGTSTLQSGVPARFSSSGSGTDFTLTINNLQAEDVGDYYCLQDSNYPLTFGAGTK
B16: Can-SL501-VH3 Q110H / Can-SL501-VL2 (antibody, V domains shown)
VH: EVQLVESGGDLVKPGGSLRLSCVASGFTFSSYGMHWVRQAPGKELEWVAVISYDGSIKYYADAVKGRFTISRDNAKNTLYLQMNSLRAEDTAVYYCARTGEYSGYDTDPHYSWGQGTTVTVSS
VL: EIVMTQSPGSLAGSAGESVSINCRASQGIGDDLGWYQQKPGERPKLLIYGTSTLQSGVPARFSSSGSGTDFTLTINNLQAEDVGDYYCLQDSNYPLTFGAGTK
B17: Can-SL501-VH3 Q110T / Can-SL501-VL2 (antibody, V domains shown)
VH: EVQLVESGGDLVKPGGSLRLSCVASGFTFSSYGMHWVRQAPGKELEWVAVISYDGSIKYYADAVKGRFTISRDNAKNTLYLQMNSLRAEDTAVYYCARTGEYSGYDTDPTYSWGQGTTVTVSS
VL: EIVMTQSPGSLAGSAGESVSINCRASQGIGDDLGWYQQKPGERPKLLIYGTSTLQSGVPARFSSSGSGTDFTLTINNLQAEDVGDYYCLQDSNYPLTFGAGTK
B18: Can-SL501-VH3 Q110V / Can-SL501-VL2 (antibody, V domains shown)
VH: EVQLVESGGDLVKPGGSLRLSCVASGFTFSSYGMHWVRQAPGKELEWVAVISYDGSIKYYADAVKGRFTISRDNAKNTLYLQMNSLRAEDTAVYYCARTGEYSGYDTDPVYSWGQGTTVTVSS
VL: EIVMTQSPGSLAGSAGESVSINCRASQGIGDDLGWYQQKPGERPKLLIYGTSTLQSGVPARFSSSGSGTDFTLTINNLQAEDVGDYYCLQDSNYPLTFGAGTK
B19: Can-SL501-VH3 Y111P / Can-SL501-VL2 (antibody, V domains shown)
VH: EVQLVESGGDLVKPGGSLRLSCVASGFTFSSYGMHWVRQAPGKELEWVAVISYDGSIKYYADAVKGRFTISRDNAKNTLYLQMNSLRAEDTAVYYCARTGEYSGYDTDPQPSWGQGTTVTVSS
VL: EIVMTQSPGSLAGSAGESVSINCRASQGIGDDLGWYQQKPGERPKLLIYGTSTLQSGVPARFSSSGSGTDFTLTINNLQAEDVGDYYCLQDSNYPLTFGAGTK
B20: Can-SL501-VH3 Y111W / Can-SL501-VL2 (antibody, V domains shown)
VH: EVQLVESGGDLVKPGGSLRLSCVASGFTFSSYGMHWVRQAPGKELEWVAVISYDGSIKYYADAVKGRFTISRDNAKNTLYLQMNSLRAEDTAVYYCARTGEYSGYDTDPQWSWGQGTTVTVSS
VL: EIVMTQSPGSLAGSAGESVSINCRASQGIGDDLGWYQQKPGERPKLLIYGTSTLQSGVPARFSSSGSGTDFTLTINNLQAEDVGDYYCLQDSNYPLTFGAGTK
B21: Can-SL501-VH3 Y111H / Can-SL501-VL2 (antibody, V domains shown)
VH: EVQLVESGGDLVKPGGSLRLSCVASGFTFSSYGMHWVRQAPGKELEWVAVISYDGSIKYYADAVKGRFTISRDNAKNTLYLQMNSLRAEDTAVYYCARTGEYSGYDTDPQHSWGQGTTVTVSS
VL: EIVMTQSPGSLAGSAGESVSINCRASQGIGDDLGWYQQKPGERPKLLIYGTSTLQSGVPARFSSSGSGTDFTLTINNLQAEDVGDYYCLQDSNYPLTFGAGTK
B22: Can-SL501-VH3 Y111M / Can-SL501-VL2 (antibody, V domains shown)
VH: EVQLVESGGDLVKPGGSLRLSCVASGFTFSSYGMHWVRQAPGKELEWVAVISYDGSIKYYADAVKGRFTISRDNAKNTLYLQMNSLRAEDTAVYYCARTGEYSGYDTDPQMSWGQGTTVTVSS
VL: EIVMTQSPGSLAGSAGESVSINCRASQGIGDDLGWYQQKPGERPKLLIYGTSTLQSGVPARFSSSGSGTDFTLTINNLQAEDVGDYYCLQDSNYPLTFGAGTK

The binders below were run against T1, TGFβ1 (R&D Systems) (assay: single point SPR).
T1 construct: also called TGFB1
T1 sequence (P01137 279-390): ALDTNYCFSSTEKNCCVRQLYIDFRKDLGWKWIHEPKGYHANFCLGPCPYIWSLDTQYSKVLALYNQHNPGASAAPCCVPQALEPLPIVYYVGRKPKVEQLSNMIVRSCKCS
With B1 the Kd was 0.341 nM. With B2 the Kd was 3.51 nM. Work on B3 yielded a Kd of 1.25 nM. B4 gave a Kd of 9.68 nM. Work on B5 yielded a Kd of 0.724 nM. B6 showed a Kd of 0.798 nM. With B7 the Kd was 1.83 nM. B8 gave a Kd of 4.97 nM. B9 gave a Kd of 1.35 nM. In the case of B10, the Kd is reported as 8.4 nM. For B11, the Kd was 6.9 nM. B12 gave a Kd of 0.534 nM. Work on B13 yielded a Kd of 1.59 nM. For B14, the Kd was 6.4 nM. With B15 the Kd was 8.38 nM. B16 showed a Kd of 5.76 nM. In the case of B17, the Kd is reported as 5.61 nM. In the case of B18, the Kd is reported as 7.37 nM. B19 showed a Kd of 7.46 nM. B20 showed a Kd of 13.9 nM. B21 was tested, and the Kd was 4.5 nM. For B22, the Kd was 1.17 nM.
